Values of other authors as cited in patent publication US20100167984A1, “Complex between human insulin and an amphiphilic polymer and use of this complex in the preparation of a fast-acting human insulin formulation” (ADOCIA, priority 2008, published 2010).

How the values were obtained:
[1] = hexamer form, at 4° C.
[2] = due to dissociation equilibria of hexamers; Brange J. et al. 1999

Human insulin: human insulin, assembled in the hexamer form
stability (storage time) [1]: approximately 2 years
slowing down of action in comparison with a fast-acting insulin analog [2]: approximately 20 minutes
